# In PMC11306496:
# Key:
# Experiment in all cases: co-IP; total rat hippocampal lysates with primary antibody and Protein A/G agarose, 4°C; buffer pH 7.4, 0.05 mol/L HEPES, 0.15 mol/L NaCl, 0.5% NP-40, 1% Triton X-100; non-immune IgG as control; slices untreated or treated with PMA (0.5 umol/L, 10 min) and/or AIP (1 umol/L)
# [1] = biological target: NMDA receptor subunit GluN1 (rat (endogenous in hippocampus)) (UniProt P35439)
# [2] = biological target: Rab11 family-interacting protein 3 (rat (endogenous in hippocampus))
# [3] = biological target: myosin Va (rat (endogenous in hippocampus)) (UniProt Q9QYF3)
# Chain of myosin Va (rat (endogenous in hippocampus)) (Q9QYF3 whole entry): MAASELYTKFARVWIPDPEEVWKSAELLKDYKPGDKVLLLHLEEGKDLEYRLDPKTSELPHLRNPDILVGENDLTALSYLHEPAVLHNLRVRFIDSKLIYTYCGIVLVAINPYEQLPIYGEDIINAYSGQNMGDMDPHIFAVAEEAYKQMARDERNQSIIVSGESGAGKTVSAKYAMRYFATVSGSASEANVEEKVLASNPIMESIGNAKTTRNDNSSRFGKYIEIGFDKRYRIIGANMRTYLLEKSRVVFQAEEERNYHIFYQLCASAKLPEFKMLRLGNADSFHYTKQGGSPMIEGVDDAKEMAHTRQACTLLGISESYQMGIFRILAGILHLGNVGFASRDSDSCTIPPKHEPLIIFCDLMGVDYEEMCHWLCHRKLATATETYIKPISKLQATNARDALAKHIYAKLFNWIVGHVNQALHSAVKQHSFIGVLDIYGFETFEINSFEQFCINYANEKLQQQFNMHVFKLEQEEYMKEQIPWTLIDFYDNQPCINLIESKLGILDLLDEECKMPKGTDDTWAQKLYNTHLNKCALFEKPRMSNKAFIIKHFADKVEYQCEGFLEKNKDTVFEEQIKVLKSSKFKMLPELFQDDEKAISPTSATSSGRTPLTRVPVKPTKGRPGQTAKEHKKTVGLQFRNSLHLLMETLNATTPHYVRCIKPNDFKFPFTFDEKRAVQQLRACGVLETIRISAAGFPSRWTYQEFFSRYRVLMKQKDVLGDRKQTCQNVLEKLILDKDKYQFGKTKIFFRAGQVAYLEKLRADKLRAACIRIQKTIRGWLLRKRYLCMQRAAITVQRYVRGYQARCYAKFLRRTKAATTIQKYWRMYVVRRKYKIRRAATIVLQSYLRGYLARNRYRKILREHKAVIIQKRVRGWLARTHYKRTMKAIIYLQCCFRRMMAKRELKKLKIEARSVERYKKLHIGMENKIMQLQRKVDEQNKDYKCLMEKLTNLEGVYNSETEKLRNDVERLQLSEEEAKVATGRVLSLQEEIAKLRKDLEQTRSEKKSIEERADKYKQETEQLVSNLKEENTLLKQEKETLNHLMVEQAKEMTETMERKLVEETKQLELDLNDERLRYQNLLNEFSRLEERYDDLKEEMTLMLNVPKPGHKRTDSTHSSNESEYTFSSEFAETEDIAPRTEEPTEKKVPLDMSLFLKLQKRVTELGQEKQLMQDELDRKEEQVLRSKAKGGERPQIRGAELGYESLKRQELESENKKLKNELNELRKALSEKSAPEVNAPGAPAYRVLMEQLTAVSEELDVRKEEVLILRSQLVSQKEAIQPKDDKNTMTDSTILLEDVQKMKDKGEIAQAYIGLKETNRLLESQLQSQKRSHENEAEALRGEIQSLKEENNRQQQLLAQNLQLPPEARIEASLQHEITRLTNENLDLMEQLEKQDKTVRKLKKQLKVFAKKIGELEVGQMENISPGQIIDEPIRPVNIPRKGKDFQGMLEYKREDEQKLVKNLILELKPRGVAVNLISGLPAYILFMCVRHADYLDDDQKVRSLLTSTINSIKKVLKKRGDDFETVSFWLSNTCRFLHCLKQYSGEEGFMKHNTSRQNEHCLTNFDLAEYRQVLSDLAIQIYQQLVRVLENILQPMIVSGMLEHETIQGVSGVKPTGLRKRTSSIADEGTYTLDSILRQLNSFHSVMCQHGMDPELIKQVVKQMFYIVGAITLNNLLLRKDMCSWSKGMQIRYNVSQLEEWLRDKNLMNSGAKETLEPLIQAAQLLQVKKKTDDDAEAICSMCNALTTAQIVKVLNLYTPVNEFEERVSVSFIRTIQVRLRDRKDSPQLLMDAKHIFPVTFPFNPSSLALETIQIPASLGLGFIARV
# [4] = biological target: small GTPase Rab11 (rat (endogenous in hippocampus)) (UniProt P62494)
# Chain of small GTPase Rab11 (rat (endogenous in hippocampus)) (P62494 whole entry): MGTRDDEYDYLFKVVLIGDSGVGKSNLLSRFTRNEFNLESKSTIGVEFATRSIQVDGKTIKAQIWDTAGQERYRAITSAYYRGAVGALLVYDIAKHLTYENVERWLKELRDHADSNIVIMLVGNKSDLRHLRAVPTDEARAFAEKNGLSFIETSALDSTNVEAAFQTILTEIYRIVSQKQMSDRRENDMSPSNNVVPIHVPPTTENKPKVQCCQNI
# Chain of small GTPase Rab11 (P62494 whole entry): as above
# Chain of NMDA receptor subunit GluN2A (Q00959 23-1464): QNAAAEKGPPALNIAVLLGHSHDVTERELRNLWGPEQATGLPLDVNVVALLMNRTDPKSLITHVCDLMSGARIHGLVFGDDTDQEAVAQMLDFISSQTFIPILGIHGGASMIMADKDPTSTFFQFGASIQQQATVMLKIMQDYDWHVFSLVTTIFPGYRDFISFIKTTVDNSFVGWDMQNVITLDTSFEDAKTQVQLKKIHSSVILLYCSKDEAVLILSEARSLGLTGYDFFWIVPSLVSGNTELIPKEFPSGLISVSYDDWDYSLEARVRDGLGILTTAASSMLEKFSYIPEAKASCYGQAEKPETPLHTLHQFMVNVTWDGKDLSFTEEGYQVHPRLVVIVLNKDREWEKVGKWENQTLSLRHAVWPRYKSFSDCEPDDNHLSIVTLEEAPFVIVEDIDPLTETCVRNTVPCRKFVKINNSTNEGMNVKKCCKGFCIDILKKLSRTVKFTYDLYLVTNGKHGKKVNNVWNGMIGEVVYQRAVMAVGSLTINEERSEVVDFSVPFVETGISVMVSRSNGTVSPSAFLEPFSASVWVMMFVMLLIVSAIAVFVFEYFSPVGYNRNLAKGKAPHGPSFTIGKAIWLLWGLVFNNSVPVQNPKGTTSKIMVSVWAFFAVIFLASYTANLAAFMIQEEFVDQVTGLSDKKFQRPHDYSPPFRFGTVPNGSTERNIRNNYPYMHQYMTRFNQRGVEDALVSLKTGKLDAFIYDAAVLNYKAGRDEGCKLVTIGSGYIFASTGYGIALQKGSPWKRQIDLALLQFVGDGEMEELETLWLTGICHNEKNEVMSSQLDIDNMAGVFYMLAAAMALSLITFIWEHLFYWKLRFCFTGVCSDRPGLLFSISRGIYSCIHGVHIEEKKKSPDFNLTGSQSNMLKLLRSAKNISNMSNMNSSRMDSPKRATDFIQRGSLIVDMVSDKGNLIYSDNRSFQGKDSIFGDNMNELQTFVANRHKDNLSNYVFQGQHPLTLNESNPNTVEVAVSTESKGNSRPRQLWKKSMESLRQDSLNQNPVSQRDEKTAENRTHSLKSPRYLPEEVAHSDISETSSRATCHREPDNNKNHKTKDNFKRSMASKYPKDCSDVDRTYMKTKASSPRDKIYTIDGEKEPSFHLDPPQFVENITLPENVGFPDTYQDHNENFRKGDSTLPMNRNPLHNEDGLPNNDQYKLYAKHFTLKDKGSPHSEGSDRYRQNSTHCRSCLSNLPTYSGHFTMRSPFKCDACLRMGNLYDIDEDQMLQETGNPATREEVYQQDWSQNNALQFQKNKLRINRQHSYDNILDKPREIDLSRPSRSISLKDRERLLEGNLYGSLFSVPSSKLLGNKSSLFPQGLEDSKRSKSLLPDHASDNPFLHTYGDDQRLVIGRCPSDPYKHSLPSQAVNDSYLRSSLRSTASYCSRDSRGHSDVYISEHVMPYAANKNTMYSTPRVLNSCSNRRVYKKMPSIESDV
"co-IP signal with PMA, normalised to control (IP with anti-GluN1) (fold of control) [1]","co-IP signal with PMA, normalised to control (IP with anti-FIP3) (fold of control) [2]","co-IP signal with PMA, normalised to control (IP with anti-MyoVa) (fold of control) [3]","co-IP signal with PMA, normalised to control (IP with anti-Rab11) (fold of control) [4]",Substance
–,1.44,–,1.5,NMDA receptor subunit GluN1 (from UniProt P35439 19-938)
–,1.33,–,1.33,myosin Va (from UniProt Q9QYF3 1-1828) (natural protein)

# The remaining lines, values behind:
Substance,"co-IP signal with PMA, normalised to control (IP with anti-GluN1) (fold of control) [1]","co-IP signal with PMA, normalised to control (IP with anti-FIP3) (fold of control) [2]","co-IP signal with PMA, normalised to control (IP with anti-MyoVa) (fold of control) [3]","co-IP signal with PMA, normalised to control (IP with anti-Rab11) (fold of control) [4]"
small GTPase Rab11 (from UniProt P62494 1-216) (natural protein),1.53,1.38,1.31,–
NMDA receptor subunit GluN2A (from UniProt Q00959 23-1464),–,1.45,–,1.39
Rab11 family-interacting protein 3 (natural protein),1.37,–,–,–
